Assay results from the supplement of paper PMC10567573.

B1: HDAC6 (parent)
chain: KMKTRELHRESSNFDSIYICPSTF

Variants of: B1
Experiment: protein stability index of a GFP-peptide fusion (GPS, HEK-293T) (PSI 1-6); higher = more stable
Settings: c terminus: a fixed tail appended
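Also: lentivirally expressed fusions sorted by FACS into six bins by GFP to DsRed ratio, PSI derived from sequencing read proportions per bin multiplied by bin number.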

Protein stability index of substitutions, site by site:
S22: M 1.42 | D 2.76 | W 3.05 | V 1.6 | G 2.06 | H 2.09 | E 2.66 | F 2.19 | L 1.42 | T 1.74 | A 2.14 | Q 1.78 | I 1.65 | Y 1.98 | K 3.33
T4: F 2.11 | Q 2.26 | Y 2 | P 2.05 | R 2.41 | D 2.89 | W 2.19 | A 2.29 | V 2.08 | H 1.95 | M 1.65 | L 1.72 | K 2.39 | G 2.83 | C 1.34 | S 2.94 | N 2.03
E10: M 2.62 | Q 1.78 | V 2.04 | A 2.51 | P 1.82 | K 2.71 | W 1.22 | N 2.98 | S 1.79 | H 1.87 | I 1.85 | G 3.45 | F 2.26 | R 2.1
L7: E 3.2 | M 1.46 | N 2.65 | G 3.12 | Q 2.72 | H 3.02 | W 2.62 | C 1.75 | P 2.72 | D 2.73 | V 1.92 | T 2.77 | Y 2.41
H8: F 1.69 | K 2.5 | L 1.97 | A 1.98 | C 1.6 | R 2.22 | I 1.38 | Y 1.56 | S 2.92 | E 2.32 | N 2.07 | P 2.56
F14: P 2.99 | Q 3.71 | T 3.11 | S 2.8 | L 2.41 | R 1.7 | N 3.05 | Y 1.78 | H 2.88 | I 2.58 | E 3.34
S16: T 2.62 | Q 1.91 | H 1.99 | I 1.54 | A 1.88 | V 2.12 | F 2.08 | M 1.66 | R 2.83 | L 1.74 | G 2.14 | Y 1.85 | P 2.47
P21: C 2.71 | G 1.95 | N 2.37 | A 1.77 | V 2.33 | F 2.44 | R 1.78 | K 2.32 | Q 1.94 | T 1.54 | S 1.74 | D 2.91 | E 1.91
S11: F 1.71 | C 1.75 | M 1.61 | L 1.66 | R 1.71 | A 1.87 | N 2.3 | W 2.85 | H 3.04 | D 2.54 | G 1.96 | V 2.3 | I 2.71
T23: M 2.44 | A 2.16 | C 2.5 | I 1.71 | G 2.46 | D 2.56 | H 2.28 | V 2.92 | Y 1.83 | W 1.62 | F 1.96 | N 3
R9: G 2.38 | F 1.39 | L 2.07 | E 2.77 | I 1.86 | S 2.27 | H 2.15 | D 2.45 | Q 2.58 | P 2.45 | Y 2.09 | W 1.78 | V 2.85 | T 2.39 | A 2.27
I19: Q 3.2 | A 2.74 | N 3.22 | S 2.35 | Y 2.16 | F 2.81 | D 3.44 | T 2.25 | G 2.91 | W 3.01 | E 3.81 | R 2.47 | P 3.35 | H 3.1 | K 2.94
I17: V 2.27 | K 3.31 | T 3.25 | S 2.45 | M 2.57 | L 2.13 | R 2.97 | Y 2.11 | F 1.85 | C 2.49 | W 2.06 | P 2.41 | Q 2.48
S12: M 1.55 | V 2.38 | Y 1.53 | Q 2.54 | E 3.25 | K 2.74 | N 2.04 | L 1.83 | F 1.74 | A 2.34 | R 1.95 | H 2.46 | D 2.29
F24: K 3.36 | H 2.76 | M 2.65 | D 3.99 | R 2.98 | G 3.15 | N 2.95 | Y 2.88 | L 2.69 | T 3.65 | I 2.31 | P 2.75 | C 2.97 | Q 2.62 | V 2.82
Y18: S 2.72 | V 2.86 | A 4.07 | I 2.31 | P 3.33 | H 2.41 | E 3.45 | W 2.38 | M 2.4 | T 3.32 | Q 2.96 | L 2.82 | D 3.8 | R 2.52
E6: R 1.92 | A 1.99 | D 2.85 | T 3.12 | L 1.44 | P 1.66 | Q 2.66 | W 1.76 | S 2.2 | F 1.86 | G 1.57 | H 1.96 | C 1.31 | V 2.23 | K 2 | I 1.83 | M 1.6
K3: T 2.2 | V 2.3 | N 2.32 | G 2.08 | C 2.43 | F 2.1 | P 2.15 | Q 2.38 | W 2.14 | M 1.5 | L 1.71 | I 1.68 | Y 2.06 | R 2.42 | S 2.81 | E 2.94
D15: F 2.02 | E 1.93 | W 2.21 | R 1.89 | L 4.27 | M 1.92 | K 1.79 | Q 1.96 | Y 1.63 | A 2 | S 2.04 | T 1.9 | N 2.01
C20: T 2.76 | P 2.69 | N 3.23 | A 2.86 | E 3.34 | Q 3.13 | M 2.17 | V 2.24 | K 2.15 | I 1.69 | Y 2.07 | S 2.48 | G 2.22
N13: Y 1.64 | H 1.58 | D 2.61 | L 1.74 | S 1.97 | F 1.45 | P 2.49 | V 1.98 | G 2.68 | R 3.21 | E 2.23 | T 2.35 | K 2.23 | Q 2.44 | I 1.73 | C 1.79
M2: K 2.91 | C 2.28 | A 3.17 | R 2.12 | Y 2.11 | Q 3.52 | T 2.59 | S 2.37 | D 2.75 | H 2.43 | V 1.66 | E 2.6 | P 2.96
K1: W 1.98 | S 2.3 | A 2.28 | D 3.04 | L 1.83 | V 2.33 | G 2.29 | M 1.83 | F 1.92 | N 2.12 | C 1.7 | Y 1.59 | E 2.84
R5: D 2.62 | V 2.27 | F 1.94 | H 2.88 | C 1.91 | S 2.21 | G 2.39 | E 2.73 | T 2.15 | Q 2.08 | Y 1.8 | K 2.38 | A 1.98 | L 3.32 | M 2.4
